Test results: patent publication US7167802B2, “Methods for identifying agents that interact with MAP kinase activated protein kinase 2” (Wyeth, priority 2002, dated 2007)
Read-outs that look alike come from different tables or passages of the source.

Tests used:
[1] = test system: MAP kinase activated protein kinase 2 (MK2); conditions: cited from earlier work
[2] = test system: LPS-induced cytokine synthesis in human monocytes; conditions: cited from earlier work
MK2 = molecular target: T1, MK2 (Homo sapiens, UniProt P49137); experiment: MK2 kinase kinetics, continuous pyruvate kinase/lactate dehydrogenase coupled assay at 340 nm; type: biochemical; conditions: for Km: 25° C.
T1 construct: made in house; host or cells: E. coli BL21 (DE3)
Method: Activation of MK2 Constructs. The MK2 constructs 41–400 and 41–364 were activated by the phosphorylation of the constructs by p38 MAP kinase. The activation was done in 20 mM HEPES (pH 7.5), 10 mM MgCl2, 2 mM DTT, 0.50 mM ATP, 0.2 mg/ml MK2 and 0.125 μg activated p38. The reaction was incubated at 25° C. for 1–2 hour then placed on ice to be used for kinetic analysis.
Kinase Kinetics. The rate of MK2 kinase was characterized in 20 mM HEPES (pH 7.5), 10 mM MgCl2, 2 mM DTT and 100 mM NaCl. The kinetics was followed by linking the turnover of ATP is to the turnover of NADH to NAD. This was followed spectrophotometrically at 340 nm. The continuos assay contained 20 units pyruvate kinase, 30 units lactate dehydrogenase, 0.25 mM NADH, 2 mM PEP and 1.6 to 8.0 μg/mL MK2. For determining the apparent Km for ATP, the ATP concentration was varied from 0.005 to 0.25 mM while the peptide was held constant at 0.2 mM for activated MK-2 or 1.0 mM for the constitutively active form of MK-2 (41–364). For determining the apparent Km for LSP-1, the LSP-1 concentration was varied from 0.01 to 0.5 mM while ATP was held constant at 2 mM. The kinetic analysis was carried out in a 96-well plate at 25° C., on a Molecular Devices spectrophotometer.
Substrate Kinetics. Peptide LSP, based on the protein substrate of MK-2 lymphocyte/leukocyte specific protein, was used for the investigation of the kinetic mechanism for the enzyme MK-2. Data was fit to equation 1 for normal Michaelis-Menten kinetics. v=Vmax[S]/Km+[S] (1) where [S] is the substrate, Vmax is the maximum enzyme velocity, Km is the Michaelis constant.

[3] = p38 + (construct activated by p38 phosphorylation)
[4] = p38 + (construct activated by p38 phosphorylation), ATP held at 2 mM, read-out: Apparent Km (LSP-1)
[5] = p38 activated / phosphorylated by p38

T1 sequence (P49137 with tags, fused parts or gaps): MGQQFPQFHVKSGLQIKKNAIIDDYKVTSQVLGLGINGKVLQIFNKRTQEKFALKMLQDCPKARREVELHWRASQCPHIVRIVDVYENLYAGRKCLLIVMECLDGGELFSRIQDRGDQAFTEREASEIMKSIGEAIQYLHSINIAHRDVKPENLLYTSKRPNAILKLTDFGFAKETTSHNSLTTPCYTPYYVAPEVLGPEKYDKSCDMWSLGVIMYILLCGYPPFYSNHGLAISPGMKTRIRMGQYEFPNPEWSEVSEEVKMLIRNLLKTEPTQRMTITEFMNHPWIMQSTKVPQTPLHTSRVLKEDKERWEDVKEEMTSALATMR

| binding of the peptide substrate LSP-1, fold weaker than to p38 activated MK2 41-400 (MK2; unphosphorylated MK2 41-364 vs p38 activated MK2 41-400) | Compound | activation of MK2 [1] | LPS-induced cytokine synthesis [2] | Vmax (MK2; [3]) | Km (MK2; [4]) [µM] | Km (MK2; p38 + (construct activated by p38 phosphorylation), LSP-1 peptide held at 0.2 mM, listed as MK2 41-400, read-out: Apparent Km (ATP)) [µM] | Km (MK2; p38 + (construct activated by p38 phosphorylation), LSP-1 peptide held at 0.2 mM, read-out: Apparent Km (ATP)) [µM] | Vmax (MK2; [5]) [µmol/min/mg] | Vmax (MK2; p38 − (not phosphorylated)) | Vmax (MK2; not phosphorylated) [µmol/min/mg] | Km (MK2; p38 − (not phosphorylated), ATP held at 2 mM, read-out: Apparent Km (LSP-1)) [µM] | Km (MK2; p38 − (not phosphorylated), LSP-1 peptide held at 1.0 mM, listed as MK2 41-364, read-out: Apparent Km (ATP)) [µM] | Km (MK2; p38 − (not phosphorylated), LSP-1 peptide held at 1.0 mM, read-out: Apparent Km (ATP)) [µM] | Km for LSP-1 peptide substrate, fold higher compared to p38 phosphorylated MK2 41-400 (MK2; unphosphorylated MK2 41-364) [fold] | Vmax, fold lower compared to p38 phosphorylated MK2 41-400 (MK2; unphosphorylated MK2 41-364) [fold] |
| --- | --- | --- | --- | --- | --- | --- | --- | --- | --- | --- | --- | --- | --- | --- | --- |
| – | C[S+]([O-])c1ccc(-c2nc(-c3ccncc3)c(-c3ccc(F)cc3)[nH]2)cc1 (stereo not shown) [SB203580] | prevents the activation | inhibits LPS-induced cytokine synthesis | – | – | – | – | – | – | – | – | – | – | – | – |
| – | 41-400: MK2 construct, amino acid residues 41–400, lacking the first 40 residues of the proline rich domain [Construct 41-400] | – | – | 8.9 + 0.1 μmole/min/mg | 13 | 15 | 7 | 8.9 | no activity | – | – | – | – | – | – |
| more than 40 fold | 41-364: constitutively active MK2 polypeptide, residues 41–364, in which a portion of the C-terminal autoinhibitory domain was removed [Construct 41-364] | – | – | 11 + 14 μmole/min/mg | 20 | – | – | 11 | 0.076 + 0.004 μmole/min/mg | 0.076 | 584 | 7 | 15 | 45 | 100 |
